This note sets out measurements from paper PMC6640709, “Selection and Characterization of a Nanobody Biosensor of GTP-Bound RHO Activities” (Antibodies, 2019).

The target in experiment [1] is 2SHA-RHOA N19 dominant negative mutant, deleted for the CAAX motif (UniProt P61586 1-189, T19N). In words: SPR. On the technique in general: In SPR one partner is held on a chip, and binding of the other changes the refractive index at the surface.
Experiment [2] concerns the target T1, 2SHA-RHOA L63 constitutively active mutant, deleted for the CAAX motif (Homo sapiens (Human)., UniProt P61586, Q63L).
T1 construct: RHOA (Ras homologous family member A), deleted for the carboxy terminal four amino acids (CAAX motif); also called RHOA-CA; RHOA Q63L; source: E. coli BL21(DE3), purified (Strep-Tactin); not shown: 2x-Strep-tag, N-terminal, kept; HA, N-terminal, kept
In words: SPR; RH57-6xHis-Myc-6xHis captured on Ni-NTA chip (250-300 RU); 2S-HA-RHOA L63 or N19 as analyte, 3.125-50 nM, single-cycle kinetics; HBS-P+ (10 mM HEPES pH 7.4, 150 mM NaCl, 0.05% P20); 1:1 Langmuir fit; BIAcore T200. Conditions: both partners purified.

For experiment [3], the target named is T2, 2SHA-RHOA wild type, deleted for the CAAX motif (Homo sapiens (Human)., UniProt P61586).
T2 construct: RHOA (Ras homologous family member A), deleted for the carboxy terminal four amino acids (CAAX motif); the two nucleotide states are told apart by the assay; also called RHOA WT; 2S-HA-RHOA wt; source: E. coli BL21(DE3), purified (Strep-Tactin), loaded with GTPγS or GDP; not shown: 2x-Strep-tag, N-terminal, kept; HA, N-terminal, kept
T2 sequence (P61586 1-189, stated change not applied): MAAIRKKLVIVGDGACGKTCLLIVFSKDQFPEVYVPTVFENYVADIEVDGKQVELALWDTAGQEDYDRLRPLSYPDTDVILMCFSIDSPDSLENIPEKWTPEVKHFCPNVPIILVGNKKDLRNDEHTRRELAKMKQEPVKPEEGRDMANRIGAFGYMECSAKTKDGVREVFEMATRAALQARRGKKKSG
Description: SPR; RH57-6xHis-Myc-6xHis captured on Ni-NTA chip; 2S-HA-RHOA WT loaded with GTPγS as analyte, 12.5-200 nM, single-cycle kinetics; HBS-P+; 1:1 Langmuir fit. Conditions: both partners purified.

The next experiment concerns the target T3, endogenous RHOB (Homo sapiens (Human)., UniProt P62745).
T3 construct: RHOB (RAS homologous family member B), endogenous in HeLa cells; also called RHOA/B/C proteins; source: endogenous, HeLa lysate
In words: co-IP; RH57-6xHis-Myc expressed in HeLa; fresh, non-loaded lysate; intracellular antibody captured on His-tag Ni-NTA resin; endogenous RHO proteins blotted. Conditions: partners not purified.

A further experiment has as its target T4, endogenous RHOC (Homo sapiens (Human)., UniProt P08134).
T4 construct: RHOC, endogenous in HeLa cells; also called RHOA/B/C proteins; source: endogenous, HeLa lysate
Described as above. Conditions: partners not purified.

For orientation: Kd means the concentration at which binding is half-saturated. Lower therefore signals higher affinity.

T3 sequence (P62745 whole entry): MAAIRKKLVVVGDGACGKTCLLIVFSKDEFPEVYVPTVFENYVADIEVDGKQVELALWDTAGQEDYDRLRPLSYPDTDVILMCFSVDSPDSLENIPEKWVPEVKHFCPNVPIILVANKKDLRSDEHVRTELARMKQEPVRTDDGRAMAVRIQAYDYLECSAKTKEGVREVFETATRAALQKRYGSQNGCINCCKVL
T1 sequence (P61586 1-189 Q63L): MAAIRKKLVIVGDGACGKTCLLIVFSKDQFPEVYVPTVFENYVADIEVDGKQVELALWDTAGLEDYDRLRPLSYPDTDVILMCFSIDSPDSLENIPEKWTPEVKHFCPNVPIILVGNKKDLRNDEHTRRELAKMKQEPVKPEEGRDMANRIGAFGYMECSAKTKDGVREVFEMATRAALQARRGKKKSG
T4 sequence (P08134 whole entry): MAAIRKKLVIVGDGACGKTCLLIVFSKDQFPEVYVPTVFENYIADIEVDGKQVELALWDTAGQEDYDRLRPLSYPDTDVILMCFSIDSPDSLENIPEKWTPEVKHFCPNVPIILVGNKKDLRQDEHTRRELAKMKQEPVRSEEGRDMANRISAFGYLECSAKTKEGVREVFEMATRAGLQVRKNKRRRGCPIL
Chain of 2SHA-RHOA N19 dominant negative mutant, deleted for the CAAX motif (P61586 1-189 T19N): as the sequence (P61586 1-189 Q63L) above, with T19N, L63Q counted along it

B1: RH57 hs2dAb fused at its carboxy terminal end with 6xHis-Myc-6xHis tag (VHH)
VHH: EVQLQASGGGFVQPGGSLRLSCAASGDTWWSSAMGWFRQAPGKEREFVSAISFYPTEYTYYADSVKGRFTISRDNSKNTVYLQMNSLRAEDTATYYCAWIAWGPWMRTSWYWGQGTQVTVSS
notes: humanized synthetic single domain antibody from the NaLi-H1 phage display library; also called RH57-6xhis-myc-6xhis; RH57 nanobody; source: E. coli XL1BLUE periplasm, purified (His-tag purification beads); not shown: 6xHis, C-terminal, kept; Myc, C-terminal, kept
Regarding B1, the results for the Kd in experiment [1], in experiment [2] and in experiment [3] were 2410 nM, 28 nM and 60.5 nM, respectively.

B2: RH57 intracellular antibody with carboxy-terminal 6xHis tag followed by Myc tag (VHH)
VHH: EVQLQASGGGFVQPGGSLRLSCAASGDTWWSSAMGWFRQAPGKEREFVSAISFYPTEYTYYADSVKGRFTISRDNSKNTVYLQMNSLRAEDTATYYCAWIAWGPWMRTSWYWGQGTQVTVSS
notes: as the VHH of m1; also called hs2dAb RH57 with a 6xhis and carboxy Myc tag; source: HeLa, transiently transfected, in lysate; not shown: 6xHis, C-terminal, kept; Myc, C-terminal, kept
B2: the binding result in the experiment with endogenous RHOB and with endogenous RHOC was “binds” in each case.
